Consider four molecules from article PMC7447767, “Molecular mechanism of mitochondrial phosphatidate transfer by Ups1” (Communications Biology, 2020).

Conditions in all cases: both partners purified
Assay [1] deals with T1, selenomethionine-substituted Ups1 (Saccharomyces cerevisiae, UniProt Q05776 1-175, selenomethionine-substituted).
T1 construct: Ups1, Saccharomyces cerevisiae, full length, selenomethionine in place of methionine; also called SeMet-labeled Ups1; Ups1A; source: selenomethionine-derived Ups1/Mdm35 complex; expression of the SeMet form not described
T1 sequence (looked up): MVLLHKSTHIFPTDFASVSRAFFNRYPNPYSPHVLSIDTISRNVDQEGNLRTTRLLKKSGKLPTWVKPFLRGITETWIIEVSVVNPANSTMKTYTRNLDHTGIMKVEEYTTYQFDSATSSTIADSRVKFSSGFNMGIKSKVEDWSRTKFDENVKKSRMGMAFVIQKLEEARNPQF
In words: crystal structure; selenomethionine-substituted Ups1/Mdm35, SAD, 2.9 Å; hanging drop, 16 °C, 8% tacsimate pH 5.0, 20% PEG3350, sodium thiocyanate.

The target of assay [2] is T2, Ups1-4E mutant (Saccharomyces cerevisiae, UniProt Q05776 1-175, K140E | R146E | K154E | K166E).
T2 construct: Ups1, Saccharomyces cerevisiae, mutant of the full-length wild-type construct; limits not restated for the mutant; also called K140E/R146E/K154E/K166E; source: gene synthesized (Beijing SYKM); E. coli Trans B, purified with Mdm35
T2 sequence (looked up): T1 sequence (looked up) with K140E, R146E, K154E, K166E
The assay can be described thus: co-sedimentation; liposome co-sedimentation: 20 μM Ups1/Mdm35 or mutants with DOPC/DOPA = 80/20 liposomes (8 mM), 20 mM Tris-HCl pH 7.5, 150 mM NaCl, 1 mM EDTA, 25 °C, 30 min; 250,000 g; Mdm35 in the pellet taken as complexed with liposome-bound Ups1.

The target in assay [3] is T3, Ups1-3E mutant (Saccharomyces cerevisiae, UniProt Q05776 1-175, K140E | R146E | K154E).
T3 construct: Ups1, Saccharomyces cerevisiae, mutant of the full-length wild-type construct; limits not restated for the mutant; also called K140E/R146E/K154E; source: gene synthesized (Beijing SYKM); E. coli Trans B, purified with Mdm35
T3 sequence (looked up): T1 sequence (looked up) with K140E, R146E, K154E
Described as above.

Assay [4] addresses T4, Ups1-2E mutant (Saccharomyces cerevisiae, UniProt Q05776 1-175, K140E | R146E).
T4 construct: Ups1, Saccharomyces cerevisiae, mutant of the full-length wild-type construct; limits not restated for the mutant; also called K140E/R146E; source: gene synthesized (Beijing SYKM); E. coli Trans B, purified with Mdm35
T4 sequence (looked up): T1 sequence (looked up) with K140E, R146E
The description is as above.

Assay [5] addresses T5, Ups1 F69L mutant (Saccharomyces cerevisiae, UniProt Q05776 1-175, F69L).
T5 construct: Ups1, Saccharomyces cerevisiae, mutant of the full-length wild-type construct; limits not restated for the mutant; source: gene synthesized (Beijing SYKM); E. coli Trans B, purified with Mdm35
T5 sequence (looked up): T1 sequence (looked up) with F69L
The description is as above.

In assay [6] the target is T6, Ups1 (N-terminal 6x His-tagged full-length Ups1) (Saccharomyces cerevisiae, UniProt Q05776 1-175).
T6 construct: Ups1, Saccharomyces cerevisiae, full length, amplified from genomic DNA; Always handled as the co-expressed complex with Mdm35 or an Mdm35 truncation; also called WT; wild-type Ups1/Mdm35 (Ups1 chain); source: E. coli Trans B, co-expressed with Mdm35 from pETDuet-1, purified (Ni-chelated Sepharose, Superdex 75)
T6 sequence (looked up): T1 sequence (looked up)
In words: SEC; gel filtration of the Ups1/Mdm35 truncation mutants (Supplementary Fig. 8a).

Substitutions are numbered along the chain they refer to.

B1: selenomethionine-substituted Mdm35 (natural protein, Saccharomyces cerevisiae, UniProt O60200 1-86, looked up)
chain: MGNIMSASFAPECTDLKTKYDSCFNEWYSEKFLKGKSVENECSKQWYAYTTCVNAALVKQGIKPALDEAREEAPFENGGKLKEVDK
modifications: selenomethionine-substituted
notes: Mdm35, Saccharomyces cerevisiae, full length, selenomethionine in place of methionine; also called SeMet-labeled Mdm35; Mdm35A; source: selenomethionine-derived Ups1/Mdm35 complex; expression of the SeMet form not described
As to B1, the binding result in assay [1] is “binds”.

B2: Mdm35 (full-length) (natural protein, Saccharomyces cerevisiae, UniProt O60200 1-86, looked up)
chain: B1 chain
notes: Mdm35, Saccharomyces cerevisiae, full length, amplified from genomic DNA; Two disulfide bridges (C13-C52 and C23-C42) between the αA and αB helices are seen in the structure; also called WT; wild-type Ups1/Mdm35 (Mdm35 chain); source: E. coli Trans B, co-expressed with His-tagged Ups1 from pETDuet-1, purified (Ni-chelated Sepharose, Superdex 75)
Consider B2, for which the binding result in assay [2], in assay [3], in assay [4] and in assay [5] was “binds” in each case.

B3: Mdm35ΔC14 (domain or fragment, Saccharomyces cerevisiae, UniProt O60200 1-72, looked up)
chain: MGNIMSASFAPECTDLKTKYDSCFNEWYSEKFLKGKSVENECSKQWYAYTTCVNAALVKQGIKPALDEAREE
notes: Mdm35, Saccharomyces cerevisiae, lacking the 14 C-terminal residues A73–K86; Limit worked out from the stated deletion A73–K86; also called Ups1/Mdm35ΔC14 (Mdm35 chain); source: gene synthesized (Beijing SYKM); E. coli Trans B, purified with Ups1
B3: in assay [6], the binding result is on record as “binds”.

B4: Mdm35ΔC5 (domain or fragment, Saccharomyces cerevisiae, UniProt O60200 1-81, looked up)
chain: MGNIMSASFAPECTDLKTKYDSCFNEWYSEKFLKGKSVENECSKQWYAYTTCVNAALVKQGIKPALDEAREEAPFENGGKL
notes: Mdm35, Saccharomyces cerevisiae, lacking the five C-terminal residues K82–K86; Limit worked out from the stated deletion K82–K86; also called Ups1/Mdm35ΔC5 (Mdm35 chain); source: gene synthesized (Beijing SYKM); E. coli Trans B, purified with Ups1
For B4, the binding result in assay [6] is given as “binds”.
